Reference: the supplement of paper PMC7125110
± gives the standard error. This sample holds only a part of the variants without activity.

B1: glmS ribozyme (parent)
chain: AUAAAAGCGCCAGAACUACAGAAAUGUAGUUGACGAGGAGGAGGUUUAUCGAAUUUUCGGCGGAUGCCUCCAAA

Assays:
Details in all cases: with glucosamine-6-phosphate
glucosamine-6-phosphate [1] = variants of: B1; assay: self-cleavage kobs at 40 uM GlcN6P; higher = faster cleavage; RNA array
How it was run: (§1)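 Barcoded ribozyme variants were transcribed in situ on sequenced MiSeq chips by E. coli RNA polymerase. At 37 °C, a hybridised Cy3 probe tracked them while glucosamine-6-phosphate (40 μM to 10 mM) in HEPES/KCl/Mg(OAc)2 buffer flowed in and tiles were imaged over ~14 h. Per-tile medians of signals normalised to baseline and to non-cleaving reference variants were fit to one- or two-exponential decays, giving kobs. kcat and KM came from weighted Michaelis–Menten fits across concentrations.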

glucosamine-6-phosphate [2] = variants of: B1; assay: self-cleavage kobs at 2500 uM GlcN6P; higher = faster cleavage; RNA array
How it was run: as §1

glucosamine-6-phosphate [3] = variants of: B1; assay: self-cleavage kobs at 10000 uM GlcN6P; higher = faster cleavage; RNA array
How it was run: as §1

glucosamine-6-phosphate [4] = variants of: B1; assay: self-cleavage kobs at 160 uM GlcN6P; higher = faster cleavage; RNA array
How it was run: as §1

glucosamine-6-phosphate [5] = variants of: B1; assay: self-cleavage kobs at 640 uM GlcN6P; higher = faster cleavage; RNA array
How it was run: as §1

Variant | self-cleavage kobs at 40 uM GlcN6P (glucosamine-6-phosphate [1]) | self-cleavage kobs at 2500 uM GlcN6P (glucosamine-6-phosphate [2]) | self-cleavage kobs at 10000 uM GlcN6P (glucosamine-6-phosphate [3]) | self-cleavage kobs at 160 uM GlcN6P (glucosamine-6-phosphate [4]) | self-cleavage kobs at 640 uM GlcN6P (glucosamine-6-phosphate [5])
G13C G62A | < 1e-05 s⁻¹ | < 1e-05 s⁻¹ |  |  | 
A15C G41A C70U | 0.000261 ± 6.2e-05 s⁻¹ |  | 0.0111 ± 0.0023 s⁻¹ |  | 
A14C U30G C50A G60U G63U | < 1e-05 s⁻¹ |  | < 1e-05 s⁻¹ |  | 
G13C G59C | < 1e-05 s⁻¹ |  | < 1e-05 s⁻¹ | < 1e-05 s⁻¹ | < 1e-05 s⁻¹
A14G U55C A64C | < 1e-05 s⁻¹ |  |  |  | 
A15G G38C | < 1e-05 s⁻¹ | < 1e-05 s⁻¹ |  | < 1e-05 s⁻¹ | < 1e-05 s⁻¹
A14G A15G A33G G40U | < 1e-05 s⁻¹ |  | < 1e-05 s⁻¹ |  | < 1e-05 s⁻¹
A14G A53G | 0.00182 ± 0.00029 s⁻¹ | 0.0146 ± 0.0045 s⁻¹ | 0.0452 ± 0.013 s⁻¹ | 0.00412 ± 0.00073 s⁻¹ | 0.0226 ± 0.0043 s⁻¹
A14U U30G C34U G40A A52G C68G | < 1e-05 s⁻¹ |  | < 1e-05 s⁻¹ |  | 
C16A A52C | < 1e-05 s⁻¹ |  | < 1e-05 s⁻¹ | < 1e-05 s⁻¹ | < 1e-05 s⁻¹
A15C A52U A53G U56C | < 1e-05 s⁻¹ |  | < 1e-05 s⁻¹ |  | 
G13C C50G G66C | 3.47e-05 ± 1.6e-05 s⁻¹ |  |  |  | 
A15G G41A | 0.000137 ± 1.9e-05 s⁻¹ | 0.0013 ± 0.00038 s⁻¹ | 0.00309 ± 0.00072 s⁻¹ | 0.000239 ± 4.1e-05 s⁻¹ | 0.000767 ± 0.00025 s⁻¹
A14U G43A U49A C58U | < 1e-05 s⁻¹ |  | < 1e-05 s⁻¹ |  | 
G13U G29U A52G C67G | 6.42e-05 ± 1.9e-05 s⁻¹ |  | 8.86e-05 ± 1.8e-05 s⁻¹ |  | 
A14U G40A G51U | < 1e-05 s⁻¹ |  |  |  | 
G13U G43A C50A C61U C68U | < 1e-05 s⁻¹ |  |  |  | 
A15G G35C C68A | < 1e-05 s⁻¹ |  |  |  | 
G13U A33U G44C | < 1e-05 s⁻¹ |  |  |  | 
A14C G32A A42U U54G | < 1e-05 s⁻¹ |  |  |  | 
A14G C34G | < 1e-05 s⁻¹ |  | < 1e-05 s⁻¹ | < 1e-05 s⁻¹ | 
A15U G43A G44U G62A | < 1e-05 s⁻¹ |  | < 1e-05 s⁻¹ |  | 
A14U U30C C61U C68A | < 1e-05 s⁻¹ |  |  |  | 
G13U U31C A33C A48C A52C U56G | < 1e-05 s⁻¹ |  |  |  | 
G13U G29U A36U U57G | < 1e-05 s⁻¹ |  | < 1e-05 s⁻¹ |  | 
A14G G59A U65G G66A | < 1e-05 s⁻¹ | < 1e-05 s⁻¹ |  |  | 
G13C G43A G63A A64G | < 1e-05 s⁻¹ |  | < 1e-05 s⁻¹ |  | 

Variant | self-cleavage kobs at 40 uM GlcN6P (glucosamine-6-phosphate [1]) | self-cleavage kobs at 2500 uM GlcN6P (glucosamine-6-phosphate [2]) | self-cleavage kobs at 10000 uM GlcN6P (glucosamine-6-phosphate [3]) | self-cleavage kobs at 160 uM GlcN6P (glucosamine-6-phosphate [4]) | self-cleavage kobs at 640 uM GlcN6P (glucosamine-6-phosphate [5])
A14G G41A C67U | < 1e-05 s⁻¹ |  |  |  | 
G13C G44C | < 1e-05 s⁻¹ | < 1e-05 s⁻¹ | < 1e-05 s⁻¹ | < 1e-05 s⁻¹ | < 1e-05 s⁻¹
A14U G37U C70A | < 1e-05 s⁻¹ |  |  |  | 
A15G C50U G60A A64C | < 1e-05 s⁻¹ |  |  |  | 
A15G G35U | < 1e-05 s⁻¹ | < 1e-05 s⁻¹ | < 1e-05 s⁻¹ | < 1e-05 s⁻¹ | 
A14C A15U G51C | < 1e-05 s⁻¹ |  |  |  | 
C16A G40U A48U | < 1e-05 s⁻¹ |  | < 1e-05 s⁻¹ |  | 
G13C G60A U65G G66C C71U | < 1e-05 s⁻¹ |  | < 1e-05 s⁻¹ |  | 
A14G G29U C34U | < 1e-05 s⁻¹ |  |  |  | 
A15U U56A | 0.000156 ± 3.4e-05 s⁻¹ | 0.00224 ± 0.00059 s⁻¹ | 0.00509 ± 0.00093 s⁻¹ | 0.000209 ± 4.3e-05 s⁻¹ | 0.00152 ± 0.00021 s⁻¹
G13C U31G A48U | < 1e-05 s⁻¹ |  |  |  | 
A14C A33U A53U U56G | < 1e-05 s⁻¹ |  | 2.92e-05 ± 1.4e-05 s⁻¹ |  | 
A14G U47G | 0.00069 ± 9.9e-05 s⁻¹ | 0.0139 ± 0.0037 s⁻¹ | 0.0324 ± 0.0073 s⁻¹ | 0.00132 ± 0.0004 s⁻¹ | 0.00356 ± 0.00073 s⁻¹
A14C A36G | < 1e-05 s⁻¹ | < 1e-05 s⁻¹ | < 1e-05 s⁻¹ | < 1e-05 s⁻¹ | < 1e-05 s⁻¹
A15U U31A G32A A36U U57A C58G C71U | 5.17e-05 ± 2.1e-05 s⁻¹ |  | 0.000109 ± 2.6e-05 s⁻¹ |  | 
A15C C70U | 0.000192 ± 1.8e-05 s⁻¹ | 0.00537 ± 0.0012 s⁻¹ | 0.00871 ± 0.0019 s⁻¹ | 0.000389 ± 4.7e-05 s⁻¹ | 0.000719 ± 7.7e-05 s⁻¹
G13C G29U A48U | < 1e-05 s⁻¹ |  |  |  | < 1e-05 s⁻¹
A14G G51C A53C | < 1e-05 s⁻¹ |  |  |  | 
A15G C71A | 0.000251 ± 5.9e-05 s⁻¹ | 0.006 ± 0.0015 s⁻¹ | 0.005 ± 0.0016 s⁻¹ | 0.00102 ± 0.00025 s⁻¹ | 0.00108 ± 0.00025 s⁻¹
A15G C71G | 0.000107 ± 1.2e-05 s⁻¹ | 0.00214 ± 0.00045 s⁻¹ |  | 0.000256 ± 4.1e-05 s⁻¹ | 0.00066 ± 8.8e-05 s⁻¹
A14C A48G U69C | < 1e-05 s⁻¹ |  |  |  | 
A14C G63A | < 1e-05 s⁻¹ |  | < 1e-05 s⁻¹ |  | < 1e-05 s⁻¹
A14G U55C C70U | 6.64e-05 ± 2.1e-05 s⁻¹ |  | 0.00236 ± 0.00041 s⁻¹ |  | 
A14U G41A G44A G60A | < 1e-05 s⁻¹ |  |  |  | 
G13U G51U | < 1e-05 s⁻¹ | < 1e-05 s⁻¹ | < 1e-05 s⁻¹ | < 1e-05 s⁻¹ | 
A14C A53C G62C C68G | < 1e-05 s⁻¹ |  | < 1e-05 s⁻¹ |  | 
